B1: UL16-binding protein 2 (Homo sapiens), Q9BZM5 (parent)
chain: MAAAAATKILLCLPLLLLLSGWSRAGRADPHSLCYDITVIPKFRPGPRWCAVQGQVDEKTFLHYDCGNKTVTPVSPLGKKLNVTTAWKAQNPVLREVVDILTEQLRDIQLENYTPKEPLTLQARMSCEQKAEGHSSGSWQFSFDGQIFLLFDSEKRMWTTVHPGARKMKEKWENDKVVAMSFHYFSMGDCIGWLEDFLMGMDSTLEPSAGAPLAMSSGTTQLRATATTLILCCLLIILPCFILPGI

Variants of: B1
Conditions: with nkg2d_human KLRK1, P26718
Chain of nkg2d_human KLRK1, P26718 (P26718 whole entry): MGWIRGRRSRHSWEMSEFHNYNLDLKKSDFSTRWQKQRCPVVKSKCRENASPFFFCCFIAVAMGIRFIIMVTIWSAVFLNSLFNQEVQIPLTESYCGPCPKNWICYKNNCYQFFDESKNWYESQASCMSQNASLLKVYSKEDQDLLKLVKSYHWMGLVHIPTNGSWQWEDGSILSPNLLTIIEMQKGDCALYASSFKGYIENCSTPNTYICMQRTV

effect of a mutation on the interaction | Variant
decreasing interaction strength | F141L
